Data taken from patent US20250296959A1, “B7-H3 TARGETING PEPTIDES AND CONSTRUCTS THEREOF” (Mariana Oncology Inc., priority 2024, published 2025).
Starred links: 1 amine or outer side, 2 acyl side, 3 side chain; linkers in the order of their positions; H or OH if unused. Positions of bridges follow the written chain, without caps; N, C: chain ends. Non-standard residues stand in square brackets, D forms with d. *: point of attachment. Ala(piperidin-4-yl) = O=C([C@H](CC1CCN([*:3])CC1)N[*:1])[*:2]; DOTA = O=C(O)CN1CCN(CC(=O)O)CCN(CC(=O)*)CCN(CC(=O)O)CC1; Trp(5-F) = N[C@@H](Cc1c[nH]c2ccc(F)cc12)C(=O)O; Pro(cis-4-F) = O=C(O)[C@@H]1C[C@H](F)CN1; Ala(4-THP) = N[C@@H](CC1CCOCC1)C(=O)O; AEF = NCCOc1ccc(C[C@H](N)C(=O)O)cc1; Val(3-OH) = CC(C)(O)[C@H](N)C(=O)O; 4Pal = N[C@@H](Cc1ccncc1)C(=O)O; aThr = C[C@H](O)[C@H](N)C(=O)O; Tle = CC(C)(C)[C@H](N)C(=O)O; hLeu = CC(C)CC[C@H](N)C(=O)O; Nle = CCCC[C@H](N)C(=O)O; Sar = CNCC(=O)O

What was measured:
[1] = molecular target: T1, Biotinylated human 4Ig B7-H3 (human, UniProt Q5ZPR3 29-461, limits assumed, biotinylated (site not stated)); experiment: SPR 25C; A = KD<=1.0 nM
T1 construct: Protein captured on the SA chip for SPR; also called 4lg-B7-H3; B7-H3 isoform 4Ig
T1 sequence: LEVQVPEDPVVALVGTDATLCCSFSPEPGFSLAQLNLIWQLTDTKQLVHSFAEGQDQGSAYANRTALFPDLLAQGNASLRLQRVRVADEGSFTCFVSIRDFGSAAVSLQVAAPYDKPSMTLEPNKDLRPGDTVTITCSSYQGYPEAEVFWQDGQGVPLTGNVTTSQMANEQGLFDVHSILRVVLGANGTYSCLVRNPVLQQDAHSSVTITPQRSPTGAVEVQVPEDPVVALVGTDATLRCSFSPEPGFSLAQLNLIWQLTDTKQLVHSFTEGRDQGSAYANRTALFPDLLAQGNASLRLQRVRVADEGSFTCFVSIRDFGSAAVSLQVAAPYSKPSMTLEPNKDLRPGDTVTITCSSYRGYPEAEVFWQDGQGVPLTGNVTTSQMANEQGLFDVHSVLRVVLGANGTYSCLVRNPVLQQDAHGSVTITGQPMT

[2] = molecular target: T1, Biotinylated human 4Ig B7-H3; experiment: SPR 37C; A = KD<=1.0 nM
[3] = molecular target: T1, Biotinylated human 4Ig B7-H3; experiment: SPR 25C; D = 100<KD<=300 nM
[4] = molecular target: T1, Biotinylated human 4Ig B7-H3; experiment: SPR 37C; D = 100<KD<=300 nM
[5] = molecular target: T1, Biotinylated human 4Ig B7-H3; experiment: SPR 25C; C = 10<KD<=100 nM
[6] = molecular target: T1, Biotinylated human 4Ig B7-H3; experiment: SPR 37C; C = 10<KD<=100 nM
2Ig B7-H3 [7] = molecular target: T2, 2Ig B7-H3 (UniProt Q5ZPR3-2 29-245, limits assumed); experiment: SPR, 25C
T2 construct: also called 2lg-B7-H3; B7-H3 isoform 2Ig
T2 sequence (looked up): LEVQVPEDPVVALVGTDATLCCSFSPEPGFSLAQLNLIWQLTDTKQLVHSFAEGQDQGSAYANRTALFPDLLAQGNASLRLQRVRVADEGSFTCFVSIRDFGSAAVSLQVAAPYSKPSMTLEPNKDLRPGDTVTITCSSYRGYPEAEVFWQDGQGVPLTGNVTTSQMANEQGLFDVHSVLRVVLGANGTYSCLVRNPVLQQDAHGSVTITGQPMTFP

2Ig B7-H3 [8] = molecular target: T2, 2Ig B7-H3; experiment: SPR, 37C
[9] = molecular target: T1, Biotinylated human 4Ig B7-H3; experiment: SPR 25C; B = 1.0<KD<=10 nM
[10] = molecular target: Biotinylated human 4Ig B7-H3 (human) (UniProt Q5ZPR3); experiment: SPR 37C; C = 10<KD<=100 nM

B1: Cpd 295 (peptide)
peptide: Ac-[hLeu]YCVGK[AEF](DOTA)DVYC[Trp(5-F)]FT-NH2
modifications: disulfide 3-11
SMILES: CC(=O)N[C@@H](CCC(C)C)C(=O)N[C@@H](Cc1ccc(O)cc1)C(=O)N[C@H]1CSSC[C@@H](C(=O)N[C@@H](Cc2c[nH]c3ccc(F)cc23)C(=O)N[C@@H](Cc2ccccc2)C(=O)N[C@H](C(N)=O)[C@@H](C)O)NC(=O)[C@H](Cc2ccc(O)cc2)NC(=O)[C@H](C(C)C)NC(=O)[C@H](CC(=O)O)NC(=O)[C@H](Cc2ccc(OCCNC(=O)CN3CCN(CC(=O)O)CCN(CC(=O)O)CCN(CC(=O)O)CC3)cc2)NC(=O)[C@H](CCCCN)NC(=O)CNC(=O)[C@H](C(C)C)NC1=O
KD [1]: ≤ 1 nM | KD [2]: ≤ 1 nM

B2: Cpd 1 (peptide)
peptide: Ac-MYCVGKYDVYCWF-NH2
modifications: disulfide 3-11
SMILES: CSCC[C@H](NC(C)=O)C(=O)N[C@@H](Cc1ccc(O)cc1)C(=O)N[C@H]1CSSC[C@@H](C(=O)N[C@@H](Cc2c[nH]c3ccccc23)C(=O)N[C@@H](Cc2ccccc2)C(N)=O)NC(=O)[C@H](Cc2ccc(O)cc2)NC(=O)[C@H](C(C)C)NC(=O)[C@H](CC(=O)O)NC(=O)[C@H](Cc2ccc(O)cc2)NC(=O)[C@H](CCCCN)NC(=O)CNC(=O)[C@H](C(C)C)NC1=O
KD [3]: 100 to 300 nM | KD [4]: 100 to 300 nM

Ac-[Nle]YCVGKYDVYCWF[aThr][dK](DOTA)-NH2 (disulfide 3-11) [Cpd 93]
KD [5]: 10 to 100 nM

Ac-[Nle]YCV[Sar]KYDVYCWF-NH2 (disulfide 3-11) [Cpd 26]
KD [5]: 10 to 100 nM | KD [6]: 10 to 100 nM

B3: Cpd 301 (peptide)
peptide: Ac-[hLeu]YCVG[Ala(piperidin-4-yl)][AEF](DOTA)DVYC[Trp(5-F)]FP-NH2
modifications: disulfide 3-11
SMILES: CC(=O)N[C@@H](CCC(C)C)C(=O)N[C@@H](Cc1ccc(O)cc1)C(=O)N[C@H]1CSSC[C@@H](C(=O)N[C@@H](Cc2c[nH]c3ccc(F)cc23)C(=O)N[C@@H](Cc2ccccc2)C(=O)N2CCC[C@H]2C(N)=O)NC(=O)[C@H](Cc2ccc(O)cc2)NC(=O)[C@H](C(C)C)NC(=O)[C@H](CC(=O)O)NC(=O)[C@H](Cc2ccc(OCCNC(=O)CN3CCN(CC(=O)O)CCN(CC(=O)O)CCN(CC(=O)O)CC3)cc2)NC(=O)[C@H](CC2CCNCC2)NC(=O)CNC(=O)[C@H](C(C)C)NC1=O
Kd (2Ig B7-H3 [7]): 860 nM

Ac-[hLeu]YCIGK(DOTA)[4Pal]DVYC[Trp(5-F)]F[Pro(cis-4-F)]-NH2 (disulfide 3-11) [Cpd 268]
Kd (2Ig B7-H3 [8]): 7000 nM | KD [9]: 1 to 10 nM

Ac-[hLeu]YC[Tle]GK(DOTA)[Ala(4-THP)]DVYC[Trp(5-F)]F[Val(3-OH)]-OH (disulfide 3-11 (inferred)) [Cpd 322]
KD [10]: 10 to 100 nM
